Each block holds one compound with its values, some of them ahead of it.
Experiments:
Oc1ccc(O)c(O)c1 = assay: purified protein; details: pH 7.5, 20 °C
Oc1ccccc1O = assay: purified protein; details: 50 mM Tris-HCl pH 7.5, ~20 °C
[1] = molecular target: T1, Acdo1-6hp (Acdo1p, catechol-1,2-dioxygenase) (Blastobotrys raffinosifermentans, UniProt A0A060T9I8); assay: spectrophotometric, 2-hydroxymuconic acid formation at […] nm; format: biochemical; details: 50 mM Tris-HCl pH 7.5, ~20 °C
T1 construct: expressed in B. raffinosifermentans G1212, HisTrap purified
T1 sequence (A0A060T9I8 1-334 limits assumed): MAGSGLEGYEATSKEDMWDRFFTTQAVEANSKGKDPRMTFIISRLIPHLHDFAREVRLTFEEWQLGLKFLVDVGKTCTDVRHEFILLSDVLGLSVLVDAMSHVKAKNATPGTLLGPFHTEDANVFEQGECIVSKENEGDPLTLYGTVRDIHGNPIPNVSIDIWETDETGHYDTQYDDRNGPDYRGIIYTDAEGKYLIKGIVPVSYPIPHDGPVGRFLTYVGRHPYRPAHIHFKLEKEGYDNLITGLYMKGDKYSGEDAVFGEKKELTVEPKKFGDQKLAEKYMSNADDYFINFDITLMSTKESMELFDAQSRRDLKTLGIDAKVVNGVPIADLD

[2] = molecular target: Blastobotrys raffinosifermentans catechol-1,2-dioxygenase with C-terminal 6His-tag (Acdo1-6hp) (Blastobotrys raffinosifermentans LS3); assay: SEC; gel filtration on Superdex 200; 50 mM Tris (pH 8), 0.15 M NaCl; flow 1 mL/min; mass against a calibration curve (blue dextran, ferritin, catalase, bovine albumin, RNAse A, vitamin B12); 'indicative' molecular mass

Compound: Acdo1-6hp (Acdo1p, catechol-1,2-dioxygenase) (Blastobotrys raffinosifermentans)
- Km (Oc1ccc(O)c(O)c1): 8 ± 2 µM
- kcat (Oc1ccc(O)c(O)c1): 17 ± 3.5 s⁻¹
- kcat/Km (Oc1ccc(O)c(O)c1): 2.13e+06 ± 971000 M⁻¹ s⁻¹
- Km (Oc1ccccc1O): 4 ± 1 µM
- kcat (Oc1ccccc1O): 15.6 ± 0.4 s⁻¹
- kcat/Km (Oc1ccccc1O): 3.95e+06 ± 930000 M⁻¹ s⁻¹

- Km [1]: 100 ± 20 µM
Compound: Oc1cccc(O)c1O [pyrogallol]

- stoichiometry N [2]: 2
Compound: Blastobotrys raffinosifermentans catechol-1,2-dioxygenase with C-terminal 6His-tag (Acdo1-6hp) (enzyme)

Reference: PMC9204233, “Characterization of Catechol-1,2-Dioxygenase (Acdo1p) From Blastobotrys raffinosifermentans and Investigation of Its Role in the Catabolism of Aromatic Compounds” (Frontiers in Microbiology, 2022)
